Test results taken from publication PMC11588112.

What was measured:
[1] = molecular target: mumps postfusion F glycoprotein trimer (unstabilized 476-GCN4) (mumps virus); test: negative-stain EM; purified glycoprotein designs alone, 2D class averages
[2] = molecular target: prefusion-stabilized mumps fusion (F) glycoprotein trimer, genotype G (V206C-A223C with 476-GCN4 and 101KRF-101GGG) (mumps virus, genotype G); test: crystal structure
[3] = molecular target: prefusion-stabilized mumps fusion (F) glycoprotein trimer, genotype G (V206C-A223C with 476-GCN4 and 101KRF-101GGG) (mumps virus, genotype G); test: negative-stain EM; purified glycoprotein designs alone, 2D class averages

In the case of “mumps postfusion F glycoprotein trimer (unstabilized 476-GCN4)”, the stoichiometry N [1] is reported as 3.

Substance “prefusion-stabilized mumps fusion (F) glycoprotein trimer, genotype G (V206C-A223C with 476-GCN4 and 101KRF-101GGG)” has a stoichiometry N [2] of 3 and a stoichiometry N [3] of 3.
